Experimental data taken from the supplement of paper PMC10899765.
Several values for one entry are separate records, joined by “and”; a condition that tells them apart may be missing. Identical values can stand only once.

How the values were obtained:
Details in all cases: 20 nM; 72 h
[1] = test system: MCF10A; test: percent viability (nuclei count relative to siNT); higher = more viable cells
Experimental: (§1)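 After 72 h, cells were fixed and stained with Hoechst and anti-fibrillarin, and nucleoli per nucleus were counted with CellProfiler. Values are plate-adjusted percent effect for the one-nucleolus and 5+ nucleoli phenotypes, normalised to siNT (0%) and to the positive controls siNOL11 or siKIF11 (100%), as the mean of biological triplicates. Percent viability is the nuclei count relative to siNT.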

[2] = test system: MCF10A; test: one-nucleolus phenotype percent effect (relative to siNT 0% and siNOL11 100%); higher = more cells with one nucleolus (ribosome biogenesis inhibition)
Experimental: as §1

[3] = test system: MCF10A; test: 5+ nucleoli phenotype percent effect (relative to siNT 0% and siKIF11 100%); higher = more cells with five or more nucleoli
Experimental: as §1

Sequence | percent viability [1] [%] | one-nucleolus phenotype percent effect [2] | 5+ nucleoli phenotype percent effect [3]
AAAGACAUAGUUGCAAGAUGGG [hsa-miR-3617-5p] | 188 | -28.6% | 37.2%
AGGCUCUAACUGGCUUUCCCUGCA [hsa-miR-6822-3p] | 37.9 | 32.4% | -24.9%
CAAAGUGAUGAGUAAUACUGGCUG [hsa-miR-3609] | 98.3 | -12.6% | 2.01%
AUGAAGCCUUCUCUGCCUUACG [hsa-miR-7843-3p] | 37.8 | 15.8% | -32.5%
GAUAUUCAGAGGCUAGGUGG [hsa-miR-6074] | 34.5 | -6.04% | -1.31%
UGUGUCCGGGAAGUGGAGGAGG [hsa-miR-4669] | 74.6 | 2.82% | -24.1%
GCUGGGCGAGGCUGGCA [hsa-miR-4486] | 38.6 | 19.5% | 3.78%
CCUUCACUGUGACUCUGCUGCAG [hsa-miR-6837-3p] | 180 | -30.8% | 50.7%
CCUGCAGAGAGGAAGCCCUUC [hsa-miR-3158-5p] | 38.5 | 26.4% | -45.3%
GUGCAUUGUAGUUGCAUUGCA [hsa-miR-33a-5p] | 46 | -0.977% | -0.156%
UAGGGGGCGGCUUGUGGAGUGU [hsa-miR-6805-5p] | 27 | 18.2% | 0.0052%
UCAGGCCUCUUUCUACCUU [hsa-miR-4650-5p] | 19.7 | -4.86% | 12.7%
UAAAAACUGCAAUUACUUUUA [hsa-miR-548aj-3p] | 115 | -18.5% | 35.3%
CGUGGAGGACGAGGAGGAGGC [hsa-miR-7847-3p] | 67.5 | 4.16% | -7.84%
ACUUGGGCACUGAAACAAUGUCC [hsa-miR-635] | 65.6 | -11.4% | 32.7%
GCGGCGAGUCCGACUCAU [hsa-miR-4285] |  | -17.6% and -20.2% | 32.6% and 20.7%
ACUUUAACAUGGAAGUGCUUUC [hsa-miR-302b-5p] | 101 | -20.3% | 35.7%
UUCAAGUAAUUCAGGAUAGGU [hsa-miR-26b-5p] | 149 | -8.67% | 45.6%
UGAGGGAGGAGGUUGGGUA [hsa-miR-6133] | 17.2 | 1.81% | -0.793%
CUGGAUGGCUCCUCCAUGUCU [hsa-miR-432-3p] | 16.2 | 62% | -33.6%

Sequence | percent viability [1] [%] | one-nucleolus phenotype percent effect [2] | 5+ nucleoli phenotype percent effect [3]
AAGGUUUGGAUAGAUGCAAUA [hsa-miR-4464] | 29.7 | 6.58% | -24.5%
GGCGCGCCCAGCUCCCGGGCU [hsa-miR-4783-5p] | 90.3 | -16.4% | 28%
AUAACAUUGUAAAGCGCUUCUUUCG [hsa-miR-3143] | 68.7 | -38.3% | 49%
CAGUUAUCACAGUGCUGAUGCU [hsa-miR-101-5p] | 33.9 | 8.44% | -23.5%
UUUUUCAUUAUUGCUCCUGACC [hsa-miR-335-3p] | 157 | -20.3% | 26.8%
UAUGUAACAUGGUCCACUAACU [hsa-miR-379-3p] | 89.1 | -12% | 38.4%
ACUGAAUCCUCUUUUCCUCAG [hsa-miR-5187-3p] | 67.9 | -12.2% | 0.116%
AGAGGUAGUAGGUUGCAUAGUU [hsa-let-7d-5p] | 28.7 | -18.5% | 30.8%
CGUGUCUUCUGGCUUGAU [hsa-miR-4711-3p] | 17.8 | 59.2% | -36.9%
CCUGGUGGCUUCCUUUU [hsa-miR-4456] | 23.6 | 6.37% | -4.84%
CCUGUUGAAGUGUAAUCCCCA [hsa-miR-1267] | 114 | -18.3% | 39.6%
GUUCCACACUGACACUGCAGAAGU [hsa-miR-3692-3p] | 49.6 | -3.86% | 6.05%
CAGUGCCUCGGCAGUGCAGCCC [hsa-miR-33b-3p] | 107 | -17.8% | 24.5%
UGGUAGACUAUGGAACGUAGG [hsa-miR-379-5p] | 31 | 12.4% | -21.8%
UGAGGCAGUAGAUUGAAU [hsa-miR-1827] | 16.7 | 60.2% | -33.8%
ACUGGACUUGGAGUCAGAAGAGUGG [hsa-miR-378c] | 22.4 | -8.35% | -4.56%
GUGUGGAAGAUGGGAGGAGAAA [hsa-miR-6833-5p] | 49.8 | -3.83% | 4.29%
AAAAGUGCUUACAGUGCAGGUAG [hsa-miR-106a-5p] | 48.8 | -17.6% | 22.1%
UUGGCCAUGGGGCUGCGCGG [hsa-miR-3187-3p] | 30.1 | -2.01% | 12.9%
GGCGGCGGGGAGGUAGGCAG [hsa-miR-8072] | 49.8 | -6.87% | -2.29%

Sequence | percent viability [1] [%] | one-nucleolus phenotype percent effect [2] | 5+ nucleoli phenotype percent effect [3]
CAGGGCCCUGGCUUUAGCAGA [hsa-miR-7160-3p] | 41.3 | 14.8% | -4.58%
GUACCUUCUGGUUCAGCUAGU [hsa-miR-4724-3p] | 82.8 | -22.1% | 19.8%
AAAGGUAAUUGCAGUUUUUCCC [hsa-miR-548ai] | 155 | -23.8% | 16.1%
CCCAUGCCUCCUGCCGCGGUC [hsa-miR-6872-3p] | 48 | 17.4% | -8.71%
UGCUAGUCUGGACUGAUAUGGU [hsa-miR-8086] | 31.7 | -8.07% | -8.54%
GCAGAGAACAAAGGACUCAGU [hsa-miR-3919] | 23.3 | 38.7% | -14.9%
UUGCAGCUGCCUGGGAGUGACUUC [hsa-miR-1301] | 49 | 26.9% | -32.5%
UUGGGGUGGAGGGCCAAGGAGC [hsa-miR-6819-5p] | 3.49 | 37.8% | 2.57%
UACUGCAGACGUGGCAAUCAUG [hsa-miR-509-3-5p] | 26.5 | 26.3% | -30.4%
CACCUCUCCUGGCAUCGCCCC [hsa-miR-6800-3p] | 128 | -20.1% | 21.6%
AGCUACAUCUGGCUACUGGGU [hsa-miR-222-3p] | 71.6 | -5.3% | -9.89%
AGGGAAGGAGGCUUGGUCUUAG [hsa-miR-4747-5p] | 29.6 | -5.76% | 11.6%
UCCCCUUCCUCCCUGCCCAG [hsa-miR-6756-3p] | 51.9 | -12.3% | 16.4%
AGCAGAAGCAGGGAGGUUCUCCCA [hsa-miR-298] | 25.9 | 17.9% | -22.8%
CAUAAAGUAGAAAGCACUACU [hsa-miR-142-5p] | 82.4 | -15.5% | 15%
CAGUGUUCAGAGAUGGA [hsa-miR-4255] | 148 | -51.8% | 68.6%
UAGUGGAUGAUGCACUCUGUGC [hsa-miR-3681-5p] | 50 | 15.8% | -13.2%
UCUGGUGUAUAGCGUUGCUCA [hsa-miR-7978] | 27.6 | 19.2% | -4.49%
AAACCGUUACCAUUACUGAGUU [hsa-miR-451a] | 69.8 | -5.64% | 12.9%
AAAAACUGUAAUUACUUUU [hsa-miR-548f] |  | -26.8% and -24.7% and -21.2% | 53.7% and 60% and 60.4%
